Test results from patent US20090180995A1, “NOVEL ANTICOAGULANT POLYPEPTIDES AND COMPLEX” (National University of Singapore, priority 2005, published 2009).
“And” between values parts separate entries of the source, which are not always exact repeats. Equal values may be shown once. “Also recorded” adds a separate entry of the source.

B1: hemextin B (protein)
chain: LKCKNKVVPFLKCKNKVVPFLCYKMTLKKVPKIPIKRGCTDACPKSSLLVNVMCCKTDKCN
B2: hemextin A (protein)
chain: LKCKNKLVPFLSKTCPEGKNLCYKMTMLKMPKIPIKRGCTDACPKSSLLVKVVCCNKDKCN
B3: hemextin AB complex: synergistic 1:1 tetrameric complex of hemextin A and hemextin B, reconstituted from equimolar proteins (protein)
chain 1: B2 chain
chain 2: B1 chain

Assays:
[1] = Hydrodynamic diameter by DLS; type: physicochemical; details: for hydrodynamic diameter (DLS): 50 mM Tris-HCl buffer (pH 7.4), 25° C.; for hydrodynamic diameter (DLS) in buffers of high ionic strength: 75 mM and 150 mM NaCl
Experimental: (B) Dynamic Light Scattering (DLS)—Complex formation studies with DLS were carried out at 25° C. using a BI200SM instrument (Brookhaven Instruments Corporation, Holstvile, N.Y., USA). A vertically polarized argon ion laser (514.2 nm, 75 mW; NEC model GLG-3112) was used as the light source. Sample solutions of hemextin A (4 mM), hemextin B (4.1 mM) and hemextin AB complex (2.3 mM) were prepared immediately prior to the experiment. The hydrodynamic diameter for the hemextin AB complex and the individual hemextins were recorded at 25° C. in solutions of different ionic strengths and at different glycerol concentrations. The ionic strengths were varied by the addition of NaCl. From the measured translational diffusion coefficient (DT), the hydrodynamic radius (RH) can be calculated using the Stokes-Einstein relation: […]
where kB is the Boltzmann constant, T is the temperature in Kelvin and η being the viscosity of the solvent. The intensity-intensity time correlation functions were obtained with a BI-9000 digital correlator equipped with the instrument. The particle size and size distribution were obtained by analyzing the field correlation function |g^(1)(τ)| using constrained regularized CONTIN method (73).

Urokinase = Urokinase (Homo sapiens, UniProt P00749); test: Serine protease specificity, urokinase; type: biochemical; details: urokinase/S-2444
Experimental: (§1) Serine protease specificity—The selectivity profile of anticoagulant proteins and their complex was examined against 12 serine proteases—procoagulant serine proteases (FIXa, FXa, FXIa, FXIIa, plasma kallikrein and thrombin), anticoagulant serine protease (APC), fibrinolytic serine proteases (urokinase, t-PA and plasmin) and classical serine proteases (trypsin and chymotrypsin). Various concentrations of purified hemextin A/hemextin B and reconstituted hemextin AB complex were preincubated with each of the enzymes (Table 1) for a period of five minutes at a temperature of 37° C., followed by the addition of appropriate chromogenic substrate.
(§2) For studies with FXIa, kallikrein and urokinase, the appropriate substrates were determined prior to their screening against the inhibitors. For FXIa, the Vmax for the amidolytic activity corresponding to the chromogenic substrates S-2266, S-2302 and S-2366 was determined. S-2302 was the substrate with the highest Vmax and thus was used in the screening studies. Similar studies with kallikrein and urokinase were carried out with substrates S-2266, S-2302 and S-2288 for kallikrein and S-2444 and S-2484 for urokinase. In a total volume of 200 μl in the individual wells of the microtiter plate, final concentrations of FVIIa (300 nM)/S-2288, FVIIa-sTF (30 nM)/S-2288, FXa (0.75 nM)/S-2765, α-thrombin (0.66 nM)/S-2238, plasmin (2 nM)/S-2366, FIXa (3 μM)/spectrozyme®fIXa, FXIa (0.34 nM)/S-2366, FXIIa (0.4 nM)/S-2302, recombinant tissue plasminogen activator (80 nM)/S-2288, activated protein C (0.34 nM)/S-2366, urokinase/S-2444, plasma kallikrein (0.4 nM)/S-2302, trypsin (2.17 nM)/S-2222 and chymotrypsin (0.4 nM)/S-2586 were measured. The kinetic rate of substrate hydrolysis (mOD/min) was measured over 5 min.

Thrombin = biological target: T1, Thrombin (Homo sapiens, UniProt P00734); test: Serine protease specificity, thrombin; type: biochemical; details: α-thrombin (0.66 nM)/S-2238
T1 construct: FXa performs a proteolytic cleavage of prothrombin to thrombin
Experimental: as §1, §2

Factor XIIa = test: Serine protease specificity, FXIIa; type: biochemical; details: FXIIa (0.4 nM)/S-2302
Experimental: as §1, §2

Plasma Kallikrein = Plasma Kallikrein (Homo sapiens, UniProt P03952); test: Serine protease specificity, plasma kallikrein; type: biochemical; details: for Observed Effect, plasma kallikrein amidolytic activity: plasma kallikrein (0.4 nM)/S-2302; for inhibitory potency towards FVIIa versus plasma kallikrein: FVIIa in the absence or presence of sTF
Experimental: as §1, §2

APC = APC (Homo sapiens, UniProt P04070); test: Serine protease specificity, APC; type: biochemical; details: activated protein C (0.34 nM)/S-2366
Experimental: as §1, §2

[2] = Molecular diameter by GEMMA; type: physicochemical; details: gas phase, 20 mM ammonium acetate (pH 7.4)
Experimental: (A) Gas Phase Electrophoretic Mobility Macromolecule Analyzer (GEMMA)—The molecular diameters in the gas phase were determined with GEMMA (71, 72) using a nano-differential mobility analyzer, model 3980 (TSI, St Paul, Minn., USA), and a standard CPC type 3025 (TSI, St Paul, Minn., USA). The instrument was operated in the ‘cone jet’ mode with an operating voltage between 2.5 and 3.0 kV, resulting in currents from 200 to 300 nA. Filtered ambient air at 2 l/min and a concentric sheath gas flow of filtered CO2 at 0.1/min was used to stabilize the electrospray against corona discharge. Sample solutions of hemextin A (4 ng/ml) and hemextin B (4 ng/ml) were prepared in 20 mM ammonium acetate (pH 7.4) immediately prior to the experiment. Hemextin AB complex (4.5 ng/ml) was reconstituted in the above buffer and was incubated at 37° C. for 10 min. Another three-finger protein, toxin C isolated and purified from the same venom was used as a control in the GEMMA experiments. The samples were infused into the electrospray chamber with an inlet flow rate of 100 nl/min. Twenty scans over the whole EM diameter range (0 to 25 nm) were recorded and averaged to obtain a GEMMA spectrum. No smoothing algorithm was applied for the data presentation.

TF-FVIIa complex = biological target: T2, TF-FVIIa complex (Homo sapiens, UniProt P08709); test: Reconstituted extrinsic tenase complex, FXa formation; type: biochemical; details: for inhibition of extrinsic tenase activity: 10 pM FVIIa, 70 nM TF, 30 nM FX, FXa by S-2222
T2 construct: tissue Dade Behring Marburg, Germany (TF, Innovin only); host or cells: human plasma (FVIIa)
Experimental: Reconstitution of the extrinsic tenase complex—TF-FVIIa complex was reconstituted by incubating 10 pM FVIIa with 70 nM of recombinant human TF (Innovin) in Buffer A (20 mM HEPES, 150 mM NaCl, 10 mM CaCl2 and 1% BSA, pH 7.4) for 10 min at 37° C. Then FX was added to the mixture to obtain a final concentration of 30 nM. The activation was stopped by the addition 50 μl of stop buffer (20 mM HEPES, 150 mM NaCl, 50 mM EDTA and 1% BSA, pH 7.4) to 50 μl aliquots of the reaction mixture after 15 min incubation. FXa formed was measured by the hydrolysis 1 mM of S-2222 in Buffer A in a microtiter plate reader at 405 nm. The inhibitory effect on extrinsic tenase activity was determined by adding the individual proteins or the anticoagulant complex 15 min prior to FX addition.

Factor IXa = Factor IXa (Homo sapiens, UniProt P00740); test: Serine protease specificity, FIXa; type: biochemical; details: FIXa (3 μM)/Spectrozyme fIXa
Experimental: as §1, §2

t-PA = t-PA (Homo sapiens, UniProt P00750); test: Serine protease specificity, t-PA; type: biochemical; details: recombinant tissue plasminogen activator (80 nM)/S-2288
Experimental: as §1, §2

Chain of Plasma Kallikrein (P03952 391-638 limits assumed, species assumed): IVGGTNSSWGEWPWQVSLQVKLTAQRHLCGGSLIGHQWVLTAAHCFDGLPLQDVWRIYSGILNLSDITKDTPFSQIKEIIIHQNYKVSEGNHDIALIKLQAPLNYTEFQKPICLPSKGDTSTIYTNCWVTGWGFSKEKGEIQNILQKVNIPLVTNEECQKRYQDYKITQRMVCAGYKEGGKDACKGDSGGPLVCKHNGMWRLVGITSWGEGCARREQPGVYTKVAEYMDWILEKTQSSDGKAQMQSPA
Chain of Plasma Kallikrein (P03952 20-390 limits assumed, species assumed): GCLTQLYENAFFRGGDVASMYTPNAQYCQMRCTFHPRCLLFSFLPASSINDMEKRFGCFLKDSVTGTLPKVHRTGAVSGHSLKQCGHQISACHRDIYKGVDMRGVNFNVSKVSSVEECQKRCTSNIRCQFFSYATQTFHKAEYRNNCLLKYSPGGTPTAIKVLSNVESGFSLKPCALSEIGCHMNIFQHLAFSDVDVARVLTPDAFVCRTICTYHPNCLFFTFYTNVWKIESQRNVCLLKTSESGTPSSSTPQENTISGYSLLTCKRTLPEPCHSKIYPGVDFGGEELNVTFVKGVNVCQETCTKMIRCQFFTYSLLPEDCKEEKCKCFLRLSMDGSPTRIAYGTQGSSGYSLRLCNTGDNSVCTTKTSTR
T2 sequence (P08709 61-212 limits assumed): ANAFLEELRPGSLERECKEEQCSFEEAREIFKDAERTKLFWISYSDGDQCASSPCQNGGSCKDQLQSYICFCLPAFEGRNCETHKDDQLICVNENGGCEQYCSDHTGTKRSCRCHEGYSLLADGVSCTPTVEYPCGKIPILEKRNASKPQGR
T2 sequence (P08709 213-466 limits assumed): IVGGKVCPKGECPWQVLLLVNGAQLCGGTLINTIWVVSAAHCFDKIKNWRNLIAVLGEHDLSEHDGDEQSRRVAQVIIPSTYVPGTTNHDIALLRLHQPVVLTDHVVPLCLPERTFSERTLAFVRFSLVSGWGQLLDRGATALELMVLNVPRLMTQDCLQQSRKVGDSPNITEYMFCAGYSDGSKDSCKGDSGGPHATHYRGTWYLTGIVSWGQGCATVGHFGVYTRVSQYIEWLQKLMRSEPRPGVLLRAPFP
T2 sequence (P13726 33-295 partner): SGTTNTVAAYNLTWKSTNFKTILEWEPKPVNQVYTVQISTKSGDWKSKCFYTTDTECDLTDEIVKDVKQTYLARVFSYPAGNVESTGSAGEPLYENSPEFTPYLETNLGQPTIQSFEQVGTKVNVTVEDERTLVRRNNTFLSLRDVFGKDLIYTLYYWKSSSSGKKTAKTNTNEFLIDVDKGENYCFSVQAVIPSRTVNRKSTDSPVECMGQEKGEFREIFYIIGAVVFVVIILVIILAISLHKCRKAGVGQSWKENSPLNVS
Chain of Factor XIIa (P00748 373-615 limits assumed): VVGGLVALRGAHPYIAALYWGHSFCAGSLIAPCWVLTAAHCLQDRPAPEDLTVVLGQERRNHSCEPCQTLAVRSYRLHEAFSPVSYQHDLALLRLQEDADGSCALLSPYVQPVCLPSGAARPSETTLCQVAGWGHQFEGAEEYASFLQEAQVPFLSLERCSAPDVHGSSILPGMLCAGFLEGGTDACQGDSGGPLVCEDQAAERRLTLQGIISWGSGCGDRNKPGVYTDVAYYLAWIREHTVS
Chain of APC (P04070 43-197 limits assumed): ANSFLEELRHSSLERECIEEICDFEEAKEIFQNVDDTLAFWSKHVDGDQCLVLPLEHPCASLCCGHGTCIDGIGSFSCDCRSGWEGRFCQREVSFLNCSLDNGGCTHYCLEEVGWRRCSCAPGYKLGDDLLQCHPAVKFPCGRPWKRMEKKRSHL
Chain of APC (P04070 212-461 limits assumed): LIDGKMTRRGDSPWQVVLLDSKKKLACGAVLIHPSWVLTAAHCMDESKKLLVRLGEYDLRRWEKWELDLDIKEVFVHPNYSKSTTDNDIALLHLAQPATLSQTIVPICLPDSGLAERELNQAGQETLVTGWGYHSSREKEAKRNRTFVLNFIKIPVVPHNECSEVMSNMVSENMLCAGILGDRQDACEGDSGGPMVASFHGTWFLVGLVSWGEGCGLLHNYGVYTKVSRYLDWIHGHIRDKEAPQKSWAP
Chain of t-PA (P00750 36-562, species assumed): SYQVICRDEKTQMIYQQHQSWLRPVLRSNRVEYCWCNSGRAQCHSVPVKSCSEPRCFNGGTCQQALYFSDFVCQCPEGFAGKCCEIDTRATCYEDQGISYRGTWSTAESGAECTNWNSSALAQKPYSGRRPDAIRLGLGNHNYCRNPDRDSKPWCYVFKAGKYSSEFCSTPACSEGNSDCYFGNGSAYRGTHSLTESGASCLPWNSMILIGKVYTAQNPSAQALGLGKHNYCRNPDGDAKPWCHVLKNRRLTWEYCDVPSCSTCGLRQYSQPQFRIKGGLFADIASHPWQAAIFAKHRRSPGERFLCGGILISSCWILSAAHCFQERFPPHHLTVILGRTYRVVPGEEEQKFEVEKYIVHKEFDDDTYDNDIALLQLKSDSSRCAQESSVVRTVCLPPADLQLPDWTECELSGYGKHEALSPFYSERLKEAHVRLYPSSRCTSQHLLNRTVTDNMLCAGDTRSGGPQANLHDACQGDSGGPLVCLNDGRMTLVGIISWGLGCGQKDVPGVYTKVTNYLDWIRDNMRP

Molecule | hydrodynamic diameter (DLS) [1] | hydrodynamic diameter (DLS) in buffers of high ionic strength [1] | Observed Effect, urokinase amidolytic activity (Urokinase) | Observed Effect, thrombin amidolytic activity (Thrombin) | Observed Effect, Factor XIIa amidolytic activity (Factor XIIa) | Observed Effect, plasma kallikrein amidolytic activity (Plasma Kallikrein) | Observed Effect, APC amidolytic activity (APC) | apparent molecular diameter (GEMMA) [2] | inhibition of extrinsic tenase activity (TF-FVIIa complex) | inhibitory activity of hemextin A on extrinsic tenase with increasing hemextin B (TF-FVIIa complex; hemextin A constant at 50 μM) | Observed Effect, Factor IXa amidolytic activity (Factor IXa) | Observed Effect, t-PA amidolytic activity (t-PA) | inhibitory potency towards FVIIa versus plasma kallikrein (Plasma Kallikrein)
B1 | 9.9 nm | No change | no inhibitory activity | no inhibitory activity | no inhibitory activity | did not inhibit | no inhibitory activity | 8.82±0.42 nm | did not mediate any inhibitory activity | increases with the increasing concentrations of hemextin B until the ratio reached 1:1 | no inhibitory activity | no inhibitory activity | –
B2 | 10.3 nm and 10.4 nm | 11.57 nm | no inhibitory activity | no inhibitory activity | no inhibitory activity | inhibit plasma kallikrein in a dose-dependant manner; also recorded: inhibit the amidolytic activity of plasma kallikrein | no inhibitory activity | 10.2±0.38 nm | mild inhibitory activity at higher concentrations | – | no inhibitory activity | no inhibitory activity | at least 50 times
B3 | 16.8 nm | – | no inhibitory activity | no inhibitory activity | no inhibitory activity | inhibit plasma kallikrein in a dose-dependant manner; also recorded: inhibit the amidolytic activity of plasma kallikrein | no inhibitory activity | 16.3±0.43 nm | completely inhibited | – | no inhibitory activity | no inhibitory activity | at least 50 times
